Test results as given in the nanobody polyreactivity screen of Harvey et al. (2022).

Assay: yeast display, Sf9 membrane polyspecificity reagent, FACS + sequencing; frameworks hold sequencing errors
How it was run: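 Genes from sorted yeast were amplified by colony PCR, read by MiSeq 2 × 250 sequencing and filtered on CDR length. These cells carried a synthetic nanobody library in Saccharomyces cerevisiae BJ5465 and were sorted by FACS into low and high (top ~1%) gates on anti-HA and streptavidin fluorescence. Polyreactivity is labelled according to the gate of origin.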

With “QVQLVESGGGLVQAGGSLRLSCSASGRTFGYNAMGRYRQEPGKERELVAAINWSGASTYYADSVKGRFTISRDNAKNTVYLQMNSLKPEDTAVYYCAADYSYIYGFDYWGQGTQVTVSS” as the sequence, how does the “polyreactivity (PSR sort gate)” value read?
Its value is “low polyreactivity”.

For “QVQLVESGGGLVQAGASLRLSCAASGFTFGTYVMGWYRQAPGKERELVARITYGGGRTYYADSVKGRFTISRDNAKNTVYLQMNSLNPEDTAVYYSNARVTYSRYFKGYNYWGQGTQVTVSS”, which “polyreactivity (PSR sort gate)” value is on record?
Its value is “high polyreactivity”.

For “QVQLVESGGGLVQAGGSLRLSCAASGSIINRYAMGWYRQARGKERELVAAITQSGGRTYYADSVKGRFTISRDNAKNTVYLQMNSLKPEDTAVYYCAKAGWPGSYIYYRFRVGYDSWGQGTQVTVSS”, which “polyreactivity (PSR sort gate)” value is on record?
The value was “high polyreactivity”.

With “QVQLVESGGGLVQAGGSLRLSCAASGRIFPLYAMGWYRKAPGKERELVAAISYSGGSTYYADSVKGRFTISRDNAKNTVYLQMISLKPEDTSVYYCAAQTARVSYRMGYWGQGTQVTVSS” as the sequence, how does the “polyreactivity (PSR sort gate)” value read?
The value was “high polyreactivity”.

Which “polyreactivity (PSR sort gate)” value does the source give for “QVQLVESGGGLVQAGGSLRLRCAASGRIFSTYAMGWYRQAPGKERALVAAINKIGGSTYYADSVKGRFTISRDNAKNTVYLQMNSLKPEDTAVYYCAADAPFYPVRRYYYWGQGTQVTVSS” here?
The value was “low polyreactivity”.

With “QVQLVESGGGLVQAGGSLRLSCAASGITFFYNAMGWYRQAPGKERELVAAISTSGGSTHYADSVKGRFTISRDIAKNTVYLQMNSLKPEDTAVYYCAARGRYRLYGYWGQGTQVTVSS” as the sequence, how does the “polyreactivity (PSR sort gate)” value read?
The value was “high polyreactivity”.

With “QVQLVESGGGLVQAGGSLRLSCAASGRTFGYYAMGWYRQAPGKEREFVAAISFRTTSTYYADSVKGRFTISRDNAKNTVYLQMNSLKPEDTAVYYCNADWYLLSTWYDYWGQGTQVTVSS” as the sequence, how does the “polyreactivity (PSR sort gate)” value read?
Its value is “high polyreactivity”.

For “QVQLVESGGGIVQAGGSLRLSCAASGNIFGQYAMGWYRQAPGKERELVAAITTTGSTYYADSVKGRFTISRDNAKNTVYLQMNSLKPEDTAVYYCAAVRYYPISYSEYWQYGYWGQGTQVTVSS”, which “polyreactivity (PSR sort gate)” value is on record?
Its value is “low polyreactivity”.

With “QVQLVESGGGLVQAGGSLRLSCAASGSTFAYYAMGRYRQAPGKERELVAAISTIAGRTYYADSVKGRFTISRDTAKNSVSLQMNSLNPEDTAFYYCNAYWWFFGGYDYWGQGTQVTVSS” as the sequence, how does the “polyreactivity (PSR sort gate)” value read?
Its value is “high polyreactivity”.

For “QVQLEESGGGLVQAGGSLRLSCAASGSTIDYYTMGWYRQAPGKERELVAAISSSGGSTYYADSVKGRFTISRDNAKNTVYLQMNSLKPEDTAVYYCNSDSWYPDHFSYYGPYDYWGQGTQVTVSS”, which “polyreactivity (PSR sort gate)” value is on record?
Its value is “low polyreactivity”.

For “QVQLVESGGGLVQAGGSLRLSCAASGRTFARNVMGSYRQAPGKERELVAAIRGSGGSTYYADSVKGRFTISRDNSKNTVYLQMNSLKPEDTAVYYCAADSSYTKRYSPTKLHFEYWGQGTQVTVSS”, which “polyreactivity (PSR sort gate)” value is on record?
The value was “high polyreactivity”.

For “QVQLVESGGGLVQAGGSLRLSCAASGRTFQSYAMGRYRQGPGKEREFVAVISRSGGDTYYADSVKGRFTISRDNAKNTVYLLMNSLKPEDTAVYYCARGYTWFYADCPEYDYWGQGTQVTVSS”, which “polyreactivity (PSR sort gate)” value is on record?
The value was “high polyreactivity”.

Which “polyreactivity (PSR sort gate)” value does the source give for “QVQLVESGGGLVQAGGSLRLSCAASGTFSFYALGWYRHAPGKERELVATIRSGGRTYYADSVKGRFTISRDTAKNTVYLQMNSLKPEDTAVYYCAKTGFLGLRQYGYWGQGTQVTVSS” here?
The value was “high polyreactivity”.

With “QVQLVESGGGLVQAGGSLRLSCAASGFTFRTYAMGWYRQAPGKERELVAAINTGGGTNYADSVKGRFTISRDNAKNTVYLQMNSLKPEDTAVYFCNAVHYYYYYWYSLYDSWGKGTQVTVSS” as the sequence, how does the “polyreactivity (PSR sort gate)” value read?
The value was “high polyreactivity”.

With “QVQLVESGGGLVQAGGSLRLSCAASGFTFRFYAMGWYRQAPGKERELVAAISRRGGTTYYADSVKGRFTISRDNAKNTVYLQMNSLKPEDTAVYYCNKDWTYEHGYWGQGTQVTVSS” as the sequence, how does the “polyreactivity (PSR sort gate)” value read?
Its value is “high polyreactivity”.

With “QVQLVESGGGLVQAGGSLRLSCAASGRTFSWYVMGWSRQAPGKERALVAAISWNGGRTYYADSVKGRFTISRDNAKNTVYLQMNRLKPEDTAVYYCATGPDPKYDYWGQGTQVTVSS” as the sequence, how does the “polyreactivity (PSR sort gate)” value read?
The value was “high polyreactivity”.

For “QDQHVESGGCLVQAGGSLRLSCAASGFTFYANAMGWYRQAPGKERELVAAISRGVSTTYADSVKGRFTISRDNSKNTVYLQMNSLTPEDTAVYYCAADGKVIAQGYDYWGQGTQVTVST”, which “polyreactivity (PSR sort gate)” value is on record?
Its value is “low polyreactivity”.

With “QVQIVESGGGLVQAGGSLRLSCAASGSTFYSYAMGWYRPAPGKERELVAGISYIGGRTYYADSVKGRFTISRDNAKNTVYLQMNSLKAEDTAVYDCAADQYGTTYGYWGHGTQVTVSS” as the sequence, how does the “polyreactivity (PSR sort gate)” value read?
Its value is “high polyreactivity”.

Which “polyreactivity (PSR sort gate)” value does the source give for “QVQLEESGGGLVQAGGRLRLSCAASGSTYSEYAMGWSRKAPGKQRELVAAINWSGGSTYYADSVKGRFTISRDNAKNTVYLQMNSLKPEDTAVYYCNKVFRHHWYPAYNSWGQGTQVTVSS” here?
Its value is “low polyreactivity”.

Which “polyreactivity (PSR sort gate)” value does the source give for “QVQLVESGGGLVQAGGSLRLSCASSGITLYGYAMGWYRQAPGKEREFVAAISRSGDRTYYADSVKGRFTISRDNAMNTVYLQMNSLKPEDTAVYYCNAWRYDYWGQGTQVTVSS” here?
Its value is “high polyreactivity”.

For “QVQLVESGGGLVQAGGSLRLSCAASGSTFRPYAMGWYRQAPGKERELVAAISSGDSTYYADSVKGRFTISRDNAKNTVYLQMNSPKREDTAVYYCAKRNYWHRGGGYWGQGTQVTVSS”, which “polyreactivity (PSR sort gate)” value is on record?
Its value is “high polyreactivity”.

For “QVQLVESGGGLVQAGGSLRLSCAASGRIFSVYAMGWYRQAPGKEREFVAAITKGGVGTYYADSVKGRFTISRDNAKNTVYLQMNSLKPEDTAVYYGAARHYYGADRYYSWGQGTQVTVSS”, which “polyreactivity (PSR sort gate)” value is on record?
Its value is “high polyreactivity”.

Which “polyreactivity (PSR sort gate)” value does the source give for “QVQLVESGGGLVQAGGSLRLSCDAYGSTFERYVMGWYCQRLGKKGSWLPVLNHNGGSTYYADSVKGRFTISRDNAKNTVYLQMNSLKPEVTAVYYCAPSFRTVLDDGYWGQGSQVTVSS” here?
Its value is “low polyreactivity”.

With “QVQLVESVGGLVQAGGSHRLSGAASGRTLYRYGLGWYRQAPGKDRELVAVIDRGGSTNYADSVKGRFTISRDNAKNTVYLQMNSLKPEDTAVYYCAKRWTAREAWRKGMGYWGQGTKVTVSS” as the sequence, how does the “polyreactivity (PSR sort gate)” value read?
The value was “high polyreactivity”.

For “QVHLVESGGGLVQAGGSLRLSCAASGRTFPSYAMGWYRQAPGKERELVAAISSSGGSTYYADSVKGRFTISRDNAKNTVYLQMNSLKPEDTAVYYCAAATPSGYYYWGQGTQVTVSS”, which “polyreactivity (PSR sort gate)” value is on record?
The value was “high polyreactivity”.

With “QVQLVESGGGLVQAGGSLRLSCAASGRIFYSYAMGWYRQAPGKERELVATISSAGSTYYADSVKGRFTISRDNAKNTVYLQMNSLKPEDTAVYYCAARRPRRYGFWGQGTQVTVSS” as the sequence, how does the “polyreactivity (PSR sort gate)” value read?
Its value is “high polyreactivity”.

With “QVQLVESGGGLVQAGGSLRLSCAASGSTFVWNAMGWYRQAPGKERELVATITLSTGSSYYADSVKGRFTISRDNAKNTVYLQMNSLKPEDTAVYYCNTEIYVDIISDYGYWGQGTQLTVSS” as the sequence, how does the “polyreactivity (PSR sort gate)” value read?
The value was “low polyreactivity”.

With “QVQLVESGGGLVQAGGSLRLSCAASGNIFSANAMVWDRQAPGKEREFVAAISSTGGSTYYADSVKGRFTISRDNAKNTVYLQMNSLIPEDTAVYYCAAYIRRYLHYDYWGQGSQVTVSS” as the sequence, how does the “polyreactivity (PSR sort gate)” value read?
The value was “high polyreactivity”.

With “QVQLVESGGGLVQGGGSLRLSCAASGRIFKYYAMGWYRQAPGKERELVADISWRGGSTYYADSVKGRFTISRDNAKNTVYLQMNCLKPEDTAVYYCNAVSPRPGFDWGQGTQVTVSS” as the sequence, how does the “polyreactivity (PSR sort gate)” value read?
Its value is “high polyreactivity”.

For “QVQLVESGGGLVQAGGSLRLSCAAYGIIFAYNAMGWYRQAPGKERELVATITDSGGSTSYADSEKGRFTISRDNAKNTVYLQMNSLKPEDTAVYYCAVLPVYWYWRNYVYLSGYDYWGQGTQVTVSS”, which “polyreactivity (PSR sort gate)” value is on record?
The value was “low polyreactivity”.

With “QVQLVESGGGLVQAGGSLRLSCAASGRTFYRNAMGWYRQATGKERELVAAISRGDSTYYADSVKGRFTISRDNAKKTVYLQMNSLKPEDTAVYYCAKRARRIGDVNMGSWGQGTQVTVSS” as the sequence, how does the “polyreactivity (PSR sort gate)” value read?
The value was “low polyreactivity”.

For “QVQLVESGGGLVQAGGSLRLSCAASGSNFWSNAMRWYRQAPGKERELVATIDDDVGSTYYADSVKGRFTISRDNAKNTVYFQMNSLKPEDTAVYYCAADTSGADAYTKVRDGYDYWGQGTQVSVSS”, which “polyreactivity (PSR sort gate)” value is on record?
The value was “low polyreactivity”.

Which “polyreactivity (PSR sort gate)” value does the source give for “LVQLQESGGGLVQAGGSLRLSCAASGTISPGGYMAWYRQAPCTERELVASINVGGSTNYADSVKGRFTISRDNAKNTVYLQMNSLKPEDNALYYCAVWGRNRLQLSYWGQGTQVTVIS” here?
Its value is “low polyreactivity”.

For “QVQLVESGGGLVQARGSLRLSCAASGFTFQNNAMGWYRQAPGKERELVAAISRSGGSTYYADSVKGRFTISRDNANITVYLQMNSLKPEDTAVYYCAKSSGTLWITKYDYWGQGTQVTVSS”, which “polyreactivity (PSR sort gate)” value is on record?
Its value is “low polyreactivity”.

Which “polyreactivity (PSR sort gate)” value does the source give for “KVQLVESGGGLVQAGGSLRLSCAASGFIFYYYAMGGYRQAPGKERELVAVLTESGSSTYYADSVKGRFTISRDNAKNSVYLQMNRLKPEDTAVYYCNADFWPYTGKYDYWGQGTQVTVSS” here?
Its value is “low polyreactivity”.

With “QVQLVESGGGLVQAGGSLRLSCAASGYTFEDNAMGWYRQAPRKESELVAAIDWSGDSTYYADSVKGRFTISRDNAKNTVYLQMNSLKPEDTAVYYCAADYTTWTDMDYWGQGTQVTVSS” as the sequence, how does the “polyreactivity (PSR sort gate)” value read?
The value was “low polyreactivity”.

With “QVQLVESGRGFVQAGGSLRLSCADSGSTFRYYAMGWYRQAPGKERELVAAISWSGGSTYYADSVKGRFTISRDNAKNTVYLQMNSLKPEDTAVYYCAAEVYLVGSRWGPRYGDYWGQGTQVTVSS” as the sequence, how does the “polyreactivity (PSR sort gate)” value read?
Its value is “high polyreactivity”.

With “QVQLVETGGGLFQAGGTLLLSCAASGRIFIRNALVWYRQAPGKEWELVAAIRTRDASTYYADSVKGRFTISRDIAKNTVYLLMNSLKPVDTAVYYCNADTTWPSSSGPTTFGQGDYWGQGTQVTVSS” as the sequence, how does the “polyreactivity (PSR sort gate)” value read?
The value was “low polyreactivity”.

Which “polyreactivity (PSR sort gate)” value does the source give for “QVQLVESGGRLVQAGGSLRLSCAASGGIFYYNAMGRYRQAPGKERELVAAIRYRGGSTYYADSVKGRFTISRDNAKNTVYLQMNSLKPEDTAVYYCAADYYRSRYYYWGQGTQVTVSS” here?
The value was “low polyreactivity”.

For “QVQLVESGGGLVQAGGSLRLSCAASGSTFQYYAMGWYRQAPGKERELVATISTSGGRTYYADSVKGRFTISRDNAKNTVYLQMNSLKPEDTAVYYCAKRRYSTYYWTFDYWGQGTQVTVSS”, which “polyreactivity (PSR sort gate)” value is on record?
Its value is “high polyreactivity”.

Which “polyreactivity (PSR sort gate)” value does the source give for “QVHLVESGGGLVQAGGSLRLSCAASGSTFYANLMGWYRQAPGKESELVAAIDGSGGRTYYADSVKGRFTISRDNAKNTVYLQMNSLKPEDTAVYYCAKKRIVPVIQFGRDYNYWGQGTQVTVSS” here?
The value was “high polyreactivity”.
